Experimental data from patent publication US20190300897A1 (INSTITUTE OF GENETICS AND DEVELOPMENTAL BIOLOGY CHINESE …, published 2019).

T1: MBP-DA2 (Arabidopsis, UniProt Q93YV5 1-401)
T1 construct: Used as bacterial lysate and held on amylose resin; also called DA2 expressed as a MBP fusion protein; DA2-MBP
T1 sequence: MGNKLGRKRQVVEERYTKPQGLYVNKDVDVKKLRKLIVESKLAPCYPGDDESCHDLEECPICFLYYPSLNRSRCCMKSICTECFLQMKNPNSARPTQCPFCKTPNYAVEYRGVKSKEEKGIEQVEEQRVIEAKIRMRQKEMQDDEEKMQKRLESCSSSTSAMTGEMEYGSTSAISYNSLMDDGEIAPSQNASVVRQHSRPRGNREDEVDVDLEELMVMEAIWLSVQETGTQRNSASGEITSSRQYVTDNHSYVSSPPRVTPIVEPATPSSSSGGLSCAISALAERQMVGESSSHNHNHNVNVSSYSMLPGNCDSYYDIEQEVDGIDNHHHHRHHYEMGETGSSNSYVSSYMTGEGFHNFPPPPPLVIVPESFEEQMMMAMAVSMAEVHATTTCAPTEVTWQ

B1: GST-DA1-LIM (other)
chain: RICAGCNMEIGHGRFLNCLNSLWHPECFRCYGCSQPISEYEFSTSGNYPFHKACYRERYHP
notes: Only the LIM domain was in the assay; not shown: glutathione S-transferase (GST) tag from vector pGEX-4T-1
B2: GST-DA1-UIM (other)
chain: MGWFNKIFKGSNQRLRVGNNKHNHNVYYDNYPTASHDDEPSAADTDADNDEPHHTQEPSTSEDNTSNDQENEDIDRAIALSLLEENQEQTSISGKYSMPVDEDEQLARALQESMVVGNSPRHKSGSTYDNGNAYGAGDLYGNGHMYGGGNVYANGDIYYPRPITFQMDF
notes: Only the part holding the two UIM domains was in the assay; not shown: glutathione S-transferase (GST) tag from vector pGEX-4T-1

Target: T1, MBP-DA2
Test: in vitro pull-down on amylose resin, anti-GST immunoblot
Experimental: To test protein-protein interaction, bacterial lysates containing approximately 15 μg of MBP-DA2 fusion proteins were combined with lysates containing approximately 30 μg of GST-DA1, GST-DA1R358K, GST-DA1-UIM, GST-DA1-LIM, GST-DA1-LIM+C or GST-DA1-C fusion proteins. 20 μl amylose resin (New England Biolabs) was added into each combined solution with continued rocking at 4° C. for 1 hour. Beads were washed […] with TGH buffer, and the isolated proteins were separated on a 10% SDS-polyactyamide gel and detected by western blot analysis with anti-GST (Abmart) and anti-MBP antibodies (Abmart), respectively.

Binder	binding result
B1	no binding
B2	no binding
